Data taken from publication PMC9943895.

Molecular target: proteasomal core particle (WT) (yeast (endogenous)) (UniProt P21243)
Assay: stimulation of CP peptidase activity (suc-LLVY-AMC) by titrated base; base titrated against 2 nM CP, preincubated 15 min at 30 °C; 5 μM suc-LLVY-AMC; initial rates fitted to a hyperbola (Michaelis–Menten); surrogate readout for base–CP interaction

Kd	Substance
36 nM	base subcomplex purified from nas6Δ cells (WT Rpt3), P38764 1-993; P32565 1-945; O13563 1-156; P33299 1-467; P40327 1-437; P33298 1-428; P53549 1-437; P33297 1-434; Q01939 1-405
145 nM	base subcomplex purified from nas6Δ rpt3-Δ3 cells, P38764 1-993; P32565 1-945; O13563 1-156; P33299 1-467; P40327 1-437; P33298 1-428; P53549 1-437; P33297 1-434; Q01939 1-405
